Measured values: patent US20230406884A1 (ZEALAND PHARMA A S, published 2023)
*1 amine or outer side, *2 acyl side, *3 side chain or, on linkers, in order; H or OH if unused. Bridges are numbered along the chain shown (N, C = ends). Where no end group is shown, it is not given here. [ ]: non-standard residue; d: D form. formula (I) linker = non-peptide linker -N(R1)-C(R2)(R3)-C(R4)(R5)- (R1 H, R2 H, R3 CH3, R4 H, R5 C(O)NH-tBu), its N is acylated by the C-terminal carbonyl and its C(R4)(R5) carbon is bonded to the N-terminal N; X3 = 3‑aminomethyl‑4‑(4-(1-piperazinyl)phenyl)benzoic acid, O=C(c1ccc(-c2ccc(N3CCN([*:3])CC3)cc2)c(CN[*:1])c1)[*:2]; Thr(OMe) = O-methyl-threonine, CO[C@H](C)[C@H](N[*:1])C(=O)[*:2]; dPhe(4-CH2NH2) = NCc1ccc(C[C@@H](N)C(=O)O)cc1; Phe(4-CH2NH2) = NCc1ccc(C[C@H](N)C(=O)O)cc1; Hyp = O=C(O)[C@@H]1C[C@@H](O)CN1; d(β3hK) = NCCCC[C@@H](N)CC(=O)O; β3hK = NCCCC[C@H](N)CC(=O)O; dNle = CCCC[C@@H](N)C(=O)O

B1: Compound No. 40 (peptide)
peptide: PFLD[Thr(OMe)]
modifications: bridge N-C; not fully specified (bridges); printed as Pro Phe Leu Asp X
notes: macrocycle of formula (I); R1 H, R2 H, R3 CH3, R4 H, R5 C(O)-NH-tert-Butyl
B2: Compound No. 157 (peptide)
peptide: PYXLDT
modifications: X^z dMeArg
notes: macrocycle of formula (I)
B3: Compound No. 165 (peptide)
peptide: PXGLDT
modifications: X^y (4-aminomethyl-Phe)
notes: macrocycle of formula (I)
B4: Compound No. 166 (peptide)
peptide: PXVLDT
modifications: X^y Tyr(OAllyl); X^z dVal
notes: macrocycle of formula (I)
B5: Compound No. 167 (peptide)
peptide: PXSLDT
modifications: X^y Tyr(OAllyl); X^z dSer
notes: macrocycle of formula (I)
B6: Compound No. 517 (peptide)
peptide: P[X3]LDT
modifications: bridge (positions not given here); not fully specified (residue 2, bridges); also: homodimer: diphenic acid diamide on piperazine N of X2 joins two copies
notes: also called ET3764; ET03764
B7: Compound No. 215 (peptide)
peptide: P[Phe(4-CH2NH2)][β3hK]LDI
modifications: bridge N-C; not fully specified (bridges); printed as Pro X1 X2 Leu Asp Ile
notes: macrocycle of formula (I)
B8: Compound No. 253 (peptide)
peptide: cyclo(P[dPhe(4-CH2NH2)][β3hK]LDI)
modifications: also: macrocycle closed by non-peptide linker -NH-CH(CH3)-CH(C(O)NH-tBu)- between Pro1 N and C-terminal C
notes: macrocycle of formula (I)
B9: Compound No. 254 (peptide)
peptide: cyclo(P[Phe(4-CH2NH2)][β3hK]LDV)
modifications: also: macrocycle closed by non-peptide linker -NH-CH(CH3)-CH(C(O)NH-tBu)- between Pro1 N and C-terminal C
notes: macrocycle of formula (I)
B10: Compound No. 32 (peptide)
peptide: [Hyp]FLDT
modifications: linker N-C via formula (I) linker
B11: Compound No. 217 (peptide)
peptide: P[dR][β3hK]LDT
modifications: bridge N-C; not fully specified (bridges); printed as Pro X1 X2 Leu Asp Thr
notes: macrocycle of formula (I)
B12: Compound No. 231 (peptide)
peptide: PR[β3hK]LDT
modifications: bridge N-C; not fully specified (bridges); also: macrocycle closed by non-peptide linker -NH-CH(CH3)-CH(C(O)NH-tBu)- between Pro1 N and C-terminal C
notes: macrocycle of formula (I)
B13: Compound No. 220 (peptide)
peptide: PF[d(β3hK)]LDI
modifications: bridge N-C; not fully specified (bridges); printed as Pro Phe X Leu Asp Ile
notes: macrocycle of formula (I)
B14: Compound No. 150 (peptide)
peptide: PYXXDT
modifications: X^z dPip; X^1 tertbutylAla
notes: macrocycle of formula (I)
B15: Compound No. 155 (peptide)
peptide: PY[dNle]LDT
modifications: bridge N-C; not fully specified (bridges); also: macrocycle closed by non-peptide linker -NH-CH(CH3)-CH(C(O)NH-tBu)- between Pro N and C-terminal C
notes: macrocycle of formula (I)

Key:
[1] = target: T1, recombinant integrin α4β1 (R&D Systems, 5397-A3-050) (UniProt P13612 34-970; P05556 21-728); assay: IC50 on α4β1 / IC50 on α4β7
T1 construct: bought; coated on the ELISA plate; also called a4b1; α4β1 integrin
T1 sequence (P13612 34-970, chain 1 of 2): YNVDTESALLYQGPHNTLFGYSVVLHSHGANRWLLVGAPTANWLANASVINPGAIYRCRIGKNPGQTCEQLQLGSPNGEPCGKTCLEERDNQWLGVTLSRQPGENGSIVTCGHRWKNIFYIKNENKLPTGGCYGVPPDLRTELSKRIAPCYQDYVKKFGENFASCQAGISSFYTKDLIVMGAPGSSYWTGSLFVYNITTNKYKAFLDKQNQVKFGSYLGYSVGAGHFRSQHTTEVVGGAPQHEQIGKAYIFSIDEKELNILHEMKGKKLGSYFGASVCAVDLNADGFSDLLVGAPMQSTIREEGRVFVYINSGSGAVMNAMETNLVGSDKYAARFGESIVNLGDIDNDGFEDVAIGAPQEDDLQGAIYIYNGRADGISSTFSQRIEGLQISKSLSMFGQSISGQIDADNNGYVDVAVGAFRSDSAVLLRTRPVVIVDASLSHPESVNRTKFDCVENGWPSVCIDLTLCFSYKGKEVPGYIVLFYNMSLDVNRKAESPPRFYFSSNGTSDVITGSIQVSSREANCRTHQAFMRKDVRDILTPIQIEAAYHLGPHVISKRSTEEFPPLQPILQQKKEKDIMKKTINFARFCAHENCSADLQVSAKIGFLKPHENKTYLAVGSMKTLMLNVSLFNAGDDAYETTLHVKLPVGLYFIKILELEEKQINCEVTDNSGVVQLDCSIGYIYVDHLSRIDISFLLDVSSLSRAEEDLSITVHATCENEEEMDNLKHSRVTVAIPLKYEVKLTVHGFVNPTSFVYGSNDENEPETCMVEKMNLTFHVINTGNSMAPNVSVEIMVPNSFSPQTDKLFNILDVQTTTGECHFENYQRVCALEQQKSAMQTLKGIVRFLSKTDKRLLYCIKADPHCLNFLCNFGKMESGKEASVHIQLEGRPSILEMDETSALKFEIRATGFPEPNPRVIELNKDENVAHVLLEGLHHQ
T1 sequence (P05556 21-728, chain 2 of 2): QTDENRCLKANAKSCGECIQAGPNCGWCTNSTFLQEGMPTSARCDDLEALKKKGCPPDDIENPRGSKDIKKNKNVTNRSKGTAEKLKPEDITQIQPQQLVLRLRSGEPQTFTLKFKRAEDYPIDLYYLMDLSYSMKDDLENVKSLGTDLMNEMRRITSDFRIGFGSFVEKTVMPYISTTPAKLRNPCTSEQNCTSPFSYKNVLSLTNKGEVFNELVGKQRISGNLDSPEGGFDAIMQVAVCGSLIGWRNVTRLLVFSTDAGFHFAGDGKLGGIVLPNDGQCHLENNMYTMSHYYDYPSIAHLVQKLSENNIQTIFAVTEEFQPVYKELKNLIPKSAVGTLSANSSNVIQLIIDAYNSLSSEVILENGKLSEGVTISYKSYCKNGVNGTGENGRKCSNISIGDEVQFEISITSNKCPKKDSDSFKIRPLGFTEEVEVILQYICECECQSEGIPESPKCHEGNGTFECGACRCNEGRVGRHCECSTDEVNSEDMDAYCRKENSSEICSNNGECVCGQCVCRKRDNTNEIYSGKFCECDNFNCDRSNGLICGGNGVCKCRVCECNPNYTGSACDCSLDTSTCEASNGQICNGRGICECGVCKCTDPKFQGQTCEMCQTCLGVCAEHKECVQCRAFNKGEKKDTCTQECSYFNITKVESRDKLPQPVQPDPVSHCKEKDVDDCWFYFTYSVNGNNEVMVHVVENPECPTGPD
Experimental: (§1) The plate was incubated at 4° C. overnight. […] The plate was then incubated for 1 hour at room temperature. The plate was washed three times with wash buffer (50 mM Tris, 100 mM NaCl, 1 mM MnCl₂, 0.05% Tween). To each well, 50 μl of compound diluted in assay buffer was added by transfer from a compound serial dilution plate. […] The plate was incubated at room temperature with shaking (300 rpm) for 2 hours to reach binding equilibrium. Then the plate was washed three times in wash buffer and 100 μl anti-human IgG Fc specific-HRP (Abcam, Ab97225) diluted at 1:2000 in assay buffer was added to each well. The plate was incubated at room temperature for 1 hour under agitation.
(§2) The plate was incubated at 4° C. overnight. […] The plate was then incubated for 1 hour at room temperature. The plate was washed three times with wash buffer (50 mM Tris, 100 mM NaCl, 1 mM MnCl₂, 0.05% Tween). To each well, 50 μl of compound diluted in assay buffer was added by transfer from a compound serial dilution plate. […] The plate was incubated at room temperature with shaking (300 rpm) for 2 hours to reach binding equilibrium.

[2] = target: T2, recombinant integrin α4β7 (R&D Systems, 5397-A3-050) (UniProt P13612 34-970; P26010 20-723); assay: competition ELISA, MAdCAM-Fc on coated α4β7
T2 construct: bought; coated on the ELISA plate; also called a4b7; α4β7 integrin
Experimental: as §1
T2 sequence (P13612 34-970, chain 1 of 2): as the sequence (P13612 34-970, chain 1 of 2) above
T2 sequence (P26010 20-723, chain 2 of 2): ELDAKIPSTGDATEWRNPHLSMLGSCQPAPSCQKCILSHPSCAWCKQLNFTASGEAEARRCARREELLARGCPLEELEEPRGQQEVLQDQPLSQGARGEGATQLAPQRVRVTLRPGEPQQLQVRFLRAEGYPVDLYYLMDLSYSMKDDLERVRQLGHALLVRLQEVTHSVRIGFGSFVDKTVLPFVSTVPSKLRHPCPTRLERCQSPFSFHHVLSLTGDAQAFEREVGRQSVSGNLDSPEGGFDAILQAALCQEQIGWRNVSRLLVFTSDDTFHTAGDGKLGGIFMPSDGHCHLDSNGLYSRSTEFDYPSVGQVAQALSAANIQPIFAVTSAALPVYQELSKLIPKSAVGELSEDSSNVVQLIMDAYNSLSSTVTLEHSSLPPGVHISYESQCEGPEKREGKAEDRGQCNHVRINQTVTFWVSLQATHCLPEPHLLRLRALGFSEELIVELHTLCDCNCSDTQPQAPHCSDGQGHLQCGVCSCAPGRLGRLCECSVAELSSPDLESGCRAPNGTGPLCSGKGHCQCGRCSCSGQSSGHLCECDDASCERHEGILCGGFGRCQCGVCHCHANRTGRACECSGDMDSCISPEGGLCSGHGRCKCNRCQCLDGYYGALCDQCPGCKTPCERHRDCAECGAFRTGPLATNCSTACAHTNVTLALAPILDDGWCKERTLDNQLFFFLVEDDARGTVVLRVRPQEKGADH

[3] = target: T1, recombinant integrin α4β1 (R&D Systems, …); assay: competition ELISA, VCAM-Fc on coated α4β1
Experimental: as §1

[4] = target: T3, recombinant integrin α4β7 (R&D Systems, 5397-A3-050) (UniProt P13612 34-970; P26010 20-723); assay: α4β7-MAdCAM-1 competition ELISA
T3 construct: coated on the ELISA plate at 1 µg/ml; also called a4b7; α4β7 integrin
Experimental: as §1
T3 sequence (P13612 34-970, chain 1 of 2): as the sequence (P13612 34-970, chain 1 of 2) above
T3 sequence (P26010 20-723, chain 2 of 2): as the sequence (P26010 20-723, chain 2 of 2) above

[5] = target: T4, recombinant integrin α4β1 (R&D Systems, 5397-A3-050 [sic]) (UniProt P13612 34-970; P05556 21-728); assay: α4β1-VCAM-1 competition ELISA
T4 construct: coated on the ELISA plate at 0.5 µg/ml; the printed catalogue number is the same as for α4β7; also called a4b1; α4β1 integrin
T4 sequence (P13612 34-970, chain 1 of 2): as the sequence (P13612 34-970, chain 1 of 2) above
T4 sequence (P05556 21-728, chain 2 of 2): as the sequence (P05556 21-728, chain 2 of 2) above
Experimental: as §1

[6] = target: T5, integrin α4β7 on human cells (human, UniProt P13612 34-1032; P26010 20-798); assay: cell-based or functional assay
T5 sequence (P13612 34-1032, chain 1 of 2): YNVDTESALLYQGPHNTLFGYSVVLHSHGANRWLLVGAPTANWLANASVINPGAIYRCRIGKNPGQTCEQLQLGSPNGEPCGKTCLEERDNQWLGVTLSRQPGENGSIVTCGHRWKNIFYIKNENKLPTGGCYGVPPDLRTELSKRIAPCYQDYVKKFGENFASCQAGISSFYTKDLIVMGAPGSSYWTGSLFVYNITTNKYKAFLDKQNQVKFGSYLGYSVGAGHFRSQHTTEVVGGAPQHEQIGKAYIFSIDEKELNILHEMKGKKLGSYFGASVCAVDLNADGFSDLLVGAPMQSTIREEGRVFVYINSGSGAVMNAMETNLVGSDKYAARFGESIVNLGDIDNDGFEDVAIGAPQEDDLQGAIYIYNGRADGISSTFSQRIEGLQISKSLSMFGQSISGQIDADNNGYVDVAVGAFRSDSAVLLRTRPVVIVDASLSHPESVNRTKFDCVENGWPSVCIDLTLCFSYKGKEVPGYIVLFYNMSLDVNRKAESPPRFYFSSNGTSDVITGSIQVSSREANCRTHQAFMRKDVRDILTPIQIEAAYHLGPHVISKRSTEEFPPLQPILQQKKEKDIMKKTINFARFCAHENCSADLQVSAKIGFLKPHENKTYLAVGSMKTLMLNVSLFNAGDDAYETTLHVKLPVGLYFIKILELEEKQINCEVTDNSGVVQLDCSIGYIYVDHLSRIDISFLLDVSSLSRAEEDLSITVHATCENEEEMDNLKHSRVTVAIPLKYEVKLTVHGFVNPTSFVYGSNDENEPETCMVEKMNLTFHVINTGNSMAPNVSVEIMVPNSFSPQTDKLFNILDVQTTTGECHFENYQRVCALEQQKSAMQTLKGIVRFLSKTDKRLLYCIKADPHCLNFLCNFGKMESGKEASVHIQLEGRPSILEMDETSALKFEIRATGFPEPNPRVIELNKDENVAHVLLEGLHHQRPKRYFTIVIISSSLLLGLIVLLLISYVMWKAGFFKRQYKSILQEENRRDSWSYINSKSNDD
T5 sequence (P26010 20-798, chain 2 of 2): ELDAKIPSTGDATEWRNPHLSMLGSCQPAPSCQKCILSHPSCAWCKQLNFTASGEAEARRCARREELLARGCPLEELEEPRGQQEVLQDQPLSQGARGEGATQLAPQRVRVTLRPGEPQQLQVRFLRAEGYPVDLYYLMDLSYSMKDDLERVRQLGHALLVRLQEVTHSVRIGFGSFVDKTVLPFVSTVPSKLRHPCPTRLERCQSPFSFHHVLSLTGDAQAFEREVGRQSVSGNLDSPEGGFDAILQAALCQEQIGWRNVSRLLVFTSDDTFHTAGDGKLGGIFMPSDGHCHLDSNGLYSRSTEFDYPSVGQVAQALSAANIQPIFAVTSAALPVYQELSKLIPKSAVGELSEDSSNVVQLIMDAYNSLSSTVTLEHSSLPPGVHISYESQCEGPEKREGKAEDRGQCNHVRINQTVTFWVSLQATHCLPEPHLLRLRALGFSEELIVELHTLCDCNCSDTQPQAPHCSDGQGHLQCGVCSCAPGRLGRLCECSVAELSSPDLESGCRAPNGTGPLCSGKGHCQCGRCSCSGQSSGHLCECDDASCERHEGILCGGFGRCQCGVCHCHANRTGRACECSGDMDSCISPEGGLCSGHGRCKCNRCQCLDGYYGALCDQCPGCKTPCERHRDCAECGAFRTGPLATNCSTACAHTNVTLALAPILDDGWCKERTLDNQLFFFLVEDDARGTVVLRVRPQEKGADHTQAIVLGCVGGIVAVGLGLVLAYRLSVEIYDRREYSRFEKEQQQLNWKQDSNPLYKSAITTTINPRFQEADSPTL

[7] = target: T6, integrin α4β1 on human cells (human, UniProt P13612 34-1032; P05556 21-798); assay: VCAM-1 competition, FACS on α4β7-negative Th memory cells, human whole blood
T6 construct: whole, on cells; also called a4b1

[8] = target: T5, integrin α4β7 on human cells; assay: competition with a saturating amount of MAdCAM, flow cytometry on α4β7+ Th memory cells in human whole blood
Experimental: Cells were washed with 1 mL stain buffer-FBS (BD Biosciences) and resuspended in 100 μl stain Buffer-FBS (BD Biosciences) containing 4 mM MnCl₂. […] Cells were then washed with 1 mL stain buffer-FBS and resuspended in 100 μl stain buffer-FBS. The cells were incubated in the dark for 30 minutes at room temperature with 1 ul Streptavidin APC (Biolegend 0.2 mg/ml) and a panel of antibodies for the detection of memory T helper a4b7-positive cells subset. And amount of 5.0 ul each of the following antibodies were used; CD45 FITC (BioLegend 200 ug/ml), CD29 APC Cy7 (BioLegend 100 ug/ml), Integrin beta7 PE, (BioLegend concentration 50 μg/mL), CD49d V421 (BioLegend 50 μg/mL), CD3 V510 (BioLegend 30 μg/mL), CD4 PECy7 (BioLegend 100 μg/mL), CD45RO PerCP, BioLegend 200 μg/mL). The cells were then washed with stain-buffer-FBS and resuspended in 150 microL stain buffer-FBS for acquisition on the flow cytometer (BD FACSCanto™ flow cytometer and BDFACSDiva™ software). FACS data was acquire by electronic gating on the basis of forward versus side scatter, The cytometer was set to collect 20,000 events in each tube. Cell population were determined using the following markers, CD45+, CD3+, CD4+, CD45RO+, CD49d+, integrin b7, biotinylated ligands.

[9] = target: T4, recombinant integrin α4β1 (R&D Systems, …); assay: ratio of ELISA IC50s, α4β1 over α4β7
Experimental: as §1, §2

[10] = target: integrin α4β7 on RPMI8866 human cells (human, UniProt P13612 34-1032; P26010 20-798); assay: cell-based or functional assay
Sequence of integrin α4β7 on RPMI8866 human cells (P13612 34-1032, chain 1 of 2): as the sequence (P13612 34-1032, chain 1 of 2) above
Sequence of integrin α4β7 on RPMI8866 human cells (P26010 20-798, chain 2 of 2): as the sequence (P26010 20-798, chain 2 of 2) above

Binder	IC50 [4] [nM]	IC50 [5] [nM]	further results
B1	–	–	ELISA Assay Ratio b1/b7 [1]: 1.9; IC50 [2]: 63 nM; IC50 [3]: 119 nM
B2	67	–	–
B3	–	2920	–
B4	–	1380	–
B5	–	2000	–
B6	–	–	IC50 in the RPM18866 cell adhesion assay [6]: 9.9 nM; IC50 [7]: 600 nM; EC50 [8]: 38 nM
B7	33	413	–
B8	69	1090	–
B9	55	1800	ELISA Assay Ratio b1/b7 [9]: 33
B10	–	–	RPMI8866 Adhesion a4b7/MAdCAM IC50 [10]: 11.2 µM
B11	–	1090	–
B12	–	993	–
B13	96	1740	ELISA Assay Ratio b1/b7 [9]: 18.2
B14	54	447	ELISA Assay Ratio b1/b7 [9]: 8.2
B15	54	–	–
